Test results reported in patent US20230381183A1, “USE OF FOLIC ACID AND FOLATE MODIFICATION IN INDUCING B-CELL IMMUNE TOLERANCE AND TARGETING mIgM-POSITIVELY-EXPRESSED B-CELL LYMPHOMA” (FUDAN UNIVERSITY, priority 2020, published 2023).

Columns and labels:
[1] = test system: splenic B lymphocytes; assay: Splenic B lymphocyte proliferation (CD86) and differentiation (GL-7) after three weekly injections; assay type: in vivo, BALB/c female mice; settings: 10 μg/mouse tail vein, once a week, three times; one week after last administration
Excerpt: (§1) The role of folate modification in mediating humoral immunosuppression and in reducing Anti-Drug Antibodies (ADA) of biomacromolecular drugs was investragated by using ovalbumin (OVA) as a model protein. OVA has strong immunogenicity and can induce the body to produce an immune response. Repeated stimulation of mice by OVA can cause the mice to produce lots of specific antibodies. The BALB/c female mice (5 weeks old) were randomly divided into FA-OVA (folate-OVA complex. Example 1) group, OVA group and physiological saline control group, with 6 mice in each group. FA-OVA, OVA and physiological saline were administered to mice via tail vein injection at a dose of 10 μg/mouse, once a week, three times in total.
One week after the last administration, the spleen lymphocyte suspension was collected and subjected to flow cytometry for analysis of proliferation and differentiation of splenic B lymphocytes. CD86 was used as a marker for cell proliferation, and GL-7 was used as germinal center B-cell surface marker. FIGS. 11a and 11b provide the CD86 flow sorting graphs and statistical analysis results of mouse spleen lymphocytes, respectively. FIGS. 11c and 11d provide the GL7 flow sorting graphs and statistical analysis results of mouse spleen lymphocytes, respectively.

[2] = test system: anaphylactic shock induced by OVA (allergen); assay: Prevention of anaphylactic shock: pretreatment, then OVA challenge; assay type: in vivo; settings: pretreatment 10 μg OVA/mouse iv weekly x3, challenge 10 μg OVA
Protocol: The BALB/c female mice (5 weeks old) were randomly divided into FA-OVA group, OVA group and physiological saline group, with 10 mice in each group. FA-OVA or OVA or physiological saline of an equal volume was administered to the mice via tail vein injection at a dose of 10 μg OVA/mouse, once a week for a total of three times. One week after the last administration, each mouse was injected with 10 μg OVA (allergen) via tail vein. Changes in body temperature of the mice within 2 hours after OVA stimulation were recorded (FIG. 18). In the meanwhile, the serum was collected from the mice, and was measured by ELISA for the expression of OVA-specific antibodies in the serum (FIG. 19). […] Therefore, folate modification can effectively prevent anaphylactic shock induced by allergens.

[3] = test system: anaphylactic shock in OVA-sensitized mice; assay: Treatment of anaphylactic shock: OVA-sensitized mice treated, then OVA challenge; assay type: in vivo, BALB/c female mice; settings: 4 μg/mouse iv every two days x3, challenge 25 μg OVA
Protocol: The BALB/c female mice (5 weeks old) were subcutaneously injected with 10 μg OVA for sensitization, once a week, three times in total. One week after the last sensitization, the OVA-sensitized mice were injected with FA-OVA, OVA and physiological saline via tail vein at a dose of 4 μg/mouse, once every two days for three times in total. After the last administration, the mice were injected with 25 μg OVA (allergen) via tail vein. Changes in body temperature of the mice within 2 hours after the injection were recorded (FIG. 20). In the meanwhile, the serum was collected from the mice and was measured by ELISA for the level of the OVA-specific antibodies in the serum (FIG. 21). The mice without OVA sensitization but stimulated by tail vein injection of OVA served as the Naïve control group.

[4] = test system: OVA-specific antibodies; assay: Serum OVA-specific antibodies by ELISA after three weekly injections; assay type: in vivo, BALB/c female mice; settings: 10 μg/mouse tail vein, once a week, three times; one week after last administration
Excerpt: as §1
One week after the last administration, the serum of the mice was collected and was measured by ELISA for the expression of OVA-specific antibodies in the serum. The results are shown in FIG. 12, wherein FIGS. 12a, 12b, 12c and 12d show the results of OVA-specific IgE, IgG, IgG1 and IgG2a, respectively.

[5] = Water solubility (observation on preparation); assay type: physicochemical
[6] = Blood routine analysis one week after last administration; assay type: in vivo, BALB/c female mice; settings: 10 μg/mouse tail vein weekly x3
Excerpt: as §1
In addition, the whole blood of the mice was collected one week after the last administration for blood routine analysis.

| Molecule | proliferation of B-cell (CD86) and differentiation into germinal center B-cell (GL-7) [1] | body temperature within 2 hours after OVA stimulation [2] | serum OVA-specific antibodies (IgE, IgG1, IgG2a) after challenge [2] | expression of OVA-specific antibodies in the serum (IgE, IgG, IgG1, IgG2a) [4] | BASO [6] | HCT [6] [%] | HGB [6] [g/L] | LYMPH [6] | MCH [6] [pg] | MCHC [6] [g/L] | MCV [6] [fL] | MONO [6] | MPV [6] [fL] | NEYT [6] | NRBC [6] | P-LCR [6] [%] | PCT [6] [%] | PDW [6] [fL] | PLT [6] | RBC [6] | further results |
| --- | --- | --- | --- | --- | --- | --- | --- | --- | --- | --- | --- | --- | --- | --- | --- | --- | --- | --- | --- | --- | --- |
| FA-OVA: folate-modified ovalbumin complex, EDC coupling of folic acid to OVA | significantly inhibited | did not change significantly | substantially comparable to the physiological saline group | significantly inhibited |  |  |  |  |  |  |  |  |  |  |  |  |  |  |  |  | effect of treatment on anaphylaxis (body temperature curve) [3]: desensitizing effect; expressions of OVA-specific antibodies IgE, IgG1 and IgC2a in serum [3]: comparable to those in the physiological saline group and significantly decreased compared with those in the OVA group; time for body temperature to return to normal after OVA challenge [3]: ≤ 2 h |
| OVA: ovalbumin, model protein and allergen [reference compound] | proliferated significantly and differentiated into the germinal center B-cell | dropped significantly | a large number of OVA-specific antibodies | a large amount of OVA-specific antibodies |  |  |  |  |  |  |  |  |  |  |  |  |  |  |  |  |  |
| FA-OVA: folate-modified ovalbumin complex, EDC coupling of folic acid to OVA (conjugate, UniProt P01012 2-386, looked up, folate via EDC coupling) Ovalbumin: GSIGAASMEFCFDVFKELKVHHANENIFYCPIAIMSALAMVYLGAKDSTRTQINKVVRFDKLPGFGDSIEAQCGTSVNVHSSLRDILNQITKPNDVYSFSLASRLYAEERYPILPEYLQCVKELYRGGLEPINFQTAADQARELINSWVESQTNGIIRNVLQPSSVDSQTAMVLVNAIVFKGLWEKAFKDEDTQAMPFRVTEQESKPVQMMYQIGLFRVASMASEKMKILELPFASGTMSMLVLLPDEVSGLEQLESIINFEKLTEWTSSNVMEERKIKVYLPRMKMEEKYNLTSVLMAMGITDVFSSSANLSGISSAESLKISQAVHAAHAEINEAGREVVGSAEAGVDAASVSEEFRADHPFLFCIKHIATNAVLFFGRCVSP |  |  |  |  | 0 10*9/L | 49.83 ± 4.53 | 161.50 ± 9.26 | 2.78 ± 0.19 10*9/L | 16.28 ± 0.59 | 325.00 ± 12.35 | 50.075 ± 1.37 | 0.035 ± 0.0058 10*9/L | 7.05 ± 0.058 | 0.94 ± 0.23 10*9/L | 0.015 ± 0.013 10*9/L | 4.35 ± 1.01 | 0.41 ± 0.042 | 5.58 ± 0.096 | 586.50 ± 59.29 10*9/L | 9.96 ± 0.89 10*12/L | water solubility [5]: easily soluble in water; RDW-CV [6]: 14.78 ± 0.50%; WBC [6]: 3.77 ± 0.42 10*9/L |
| OVA: ovalbumin, model protein and allergen (protein, UniProt P01012 2-386, looked up) Ovalbumin: GSIGAASMEFCFDVFKELKVHHANENIFYCPIAIMSALAMVYLGAKDSTRTQINKVVRFDKLPGFGDSIEAQCGTSVNVHSSLRDILNQITKPNDVYSFSLASRLYAEERYPILPEYLQCVKELYRGGLEPINFQTAADQARELINSWVESQTNGIIRNVLQPSSVDSQTAMVLVNAIVFKGLWEKAFKDEDTQAMPFRVTEQESKPVQMMYQIGLFRVASMASEKMKILELPFASGTMSMLVLLPDEVSGLEQLESIINFEKLTEWTSSNVMEERKIKVYLPRMKMEEKYNLTSVLMAMGITDVFSSSANLSGISSAESLKISQAVHAAHAEINEAGREVVGSAEAGVDAASVSEEFRADHPFLFCIKHIATNAVLFFGRCVSP |  |  |  |  | 0 10*9/L | 52.15 ± 5.97 | 169.25 ± 13.45 | 2.58 ± 0.29 10*9/L | 16.08 ± 0.67 | 325.75 ± 16.50 | 49.43 ± 0.43 | 0.035 ± 0.017 10*9/L | 7.10 ± 0.14 | 0.80 ± 0.21 10*9/L | 0.025 ± 0.013 10*9/L | 5.15 ± 1.48 | 0.45 ± 0.016 | 5.53 ± 0.15 | 635.00 ± 36.59 10*9/L | 10.55 ± 1.13 10*12/L | anaphylactic shock / death after OVA challenge ([2]; 10 mice per group): two mice died; RDW-CV [6]: 14.63 ± 0.33%; WBC [6]: 3.43 ± 0.51 10*9/L |
